Results as given in publication PMC3202870.

Molecular target: PA63, the cell-associated furin-cleavage product of Bacillus anthracis protective antigen (PA83) (Bacillus anthracis)
Test: SDS-PAGE and phosphoimaging of 125I-PA recovered from cells

Substance: PA63, the cell-associated furin-cleavage product of Bacillus anthracis protective antigen (PA83) (domain or fragment)
- stoichiometry N: 7
